To fix the notation:
B1: WW domain-binding protein 4, residues 8 to 43; numbered along this chain, O75554 (parent)
chain: QPKKFCDYCKCWIADNRPSVEFHERGKNHKENVAKR

± gives the uncertainty stated by the source.

Variants of B1 are the subject of this data set. The experiment in a line: abundance fitness (aPCA) (normalised: wild type 0, dead -1); higher = more abundant; growth selection in yeast, the domain comes from the species named. To be noted: Homo sapiens.
Turning to VPKKFCDYCKCWIADNRPSVEFHERGKNHKENVAKR [Q1V], the abundance fitness is -0.257 ± 0.094.

Take TPKKFCDYCKCWIADNRPSVEFHERGKNHKENVAKR [Q1T]: the abundance fitness was -0.509 ± 0.12.

Regarding IPKKFCDYCKCWIADNRPSVEFHERGKNHKENVAKR [Q1I], the abundance fitness is 0.404 ± 0.17.

In the case of RPKKFCDYCKCWIADNRPSVEFHERGKNHKENVAKR [Q1R], the abundance fitness was -0.979 ± 0.094.

With GPKKFCDYCKCWIADNRPSVEFHERGKNHKENVAKR [Q1G], the abundance fitness was -0.548 ± 0.099.

As to SPKKFCDYCKCWIADNRPSVEFHERGKNHKENVAKR [Q1S], the abundance fitness was -0.651 ± 0.11.

As for APKKFCDYCKCWIADNRPSVEFHERGKNHKENVAKR [Q1A], the abundance fitness is -0.931 ± 0.23.

Turning to MPKKFCDYCKCWIADNRPSVEFHERGKNHKENVAKR [Q1M], the abundance fitness is -0.242 ± 0.075.

In the case of LPKKFCDYCKCWIADNRPSVEFHERGKNHKENVAKR [Q1L], the abundance fitness is -0.654 ± 0.081.

As for KPKKFCDYCKCWIADNRPSVEFHERGKNHKENVAKR [Q1K], the abundance fitness was -0.879 ± 0.15.

For the variant CPKKFCDYCKCWIADNRPSVEFHERGKNHKENVAKR [Q1C], the abundance fitness was -1.36 ± 0.41.

With HPKKFCDYCKCWIADNRPSVEFHERGKNHKENVAKR [Q1H], the abundance fitness is -0.275 ± 0.089.

EPKKFCDYCKCWIADNRPSVEFHERGKNHKENVAKR [Q1E]: the abundance fitness is -0.941 ± 0.12.

For YPKKFCDYCKCWIADNRPSVEFHERGKNHKENVAKR [Q1Y], the abundance fitness was -0.422 ± 0.41.

Turning to WPKKFCDYCKCWIADNRPSVEFHERGKNHKENVAKR [Q1W], the abundance fitness was -1.47 ± 0.32.

Turning to QSKKFCDYCKCWIADNRPSVEFHERGKNHKENVAKR [P2S], the abundance fitness amounted to 0.115 ± 0.075.

On to QYKKFCDYCKCWIADNRPSVEFHERGKNHKENVAKR [P2Y], for which the abundance fitness is -0.176 ± 0.26.

Turning to QGKKFCDYCKCWIADNRPSVEFHERGKNHKENVAKR [P2G], the abundance fitness is 0.136 ± 0.06.

Regarding QQKKFCDYCKCWIADNRPSVEFHERGKNHKENVAKR [P2Q], the abundance fitness was found to be 0.179 ± 0.099.

In the case of QDKKFCDYCKCWIADNRPSVEFHERGKNHKENVAKR [P2D], the abundance fitness amounted to 0.365 ± 0.25.

As to QIKKFCDYCKCWIADNRPSVEFHERGKNHKENVAKR [P2I], the abundance fitness came out at 0.015 ± 0.14.

As to QLKKFCDYCKCWIADNRPSVEFHERGKNHKENVAKR [P2L], the abundance fitness was found to be 0.045 ± 0.096.

QAKKFCDYCKCWIADNRPSVEFHERGKNHKENVAKR [P2A]: the abundance fitness was 0.007 ± 0.075.

Consider QTKKFCDYCKCWIADNRPSVEFHERGKNHKENVAKR [P2T], for which the abundance fitness was determined as 0.109 ± 0.11.

Turning to QWKKFCDYCKCWIADNRPSVEFHERGKNHKENVAKR [P2W], the abundance fitness is -0.692 ± 0.085.

In the case of QCKKFCDYCKCWIADNRPSVEFHERGKNHKENVAKR [P2C], the abundance fitness is -0.839 ± 0.18.

Take QMKKFCDYCKCWIADNRPSVEFHERGKNHKENVAKR [P2M]: the abundance fitness is 0.615 ± 0.2.

QVKKFCDYCKCWIADNRPSVEFHERGKNHKENVAKR [P2V]: the abundance fitness was 0.06 ± 0.066.

With QKKKFCDYCKCWIADNRPSVEFHERGKNHKENVAKR [P2K], the abundance fitness turned out to be 0.294 ± 0.16.

On to QRKKFCDYCKCWIADNRPSVEFHERGKNHKENVAKR [P2R], for which the abundance fitness was 0.047 ± 0.062.

Take QPFKFCDYCKCWIADNRPSVEFHERGKNHKENVAKR [K3F]: the abundance fitness was -0.881 ± 0.29.

On to QPRKFCDYCKCWIADNRPSVEFHERGKNHKENVAKR [K3R], for which the abundance fitness came out at 0.013 ± 0.062.

Turning to QPAKFCDYCKCWIADNRPSVEFHERGKNHKENVAKR [K3A], the abundance fitness was -0.194 ± 0.062.

On to QPVKFCDYCKCWIADNRPSVEFHERGKNHKENVAKR [K3V], for which the abundance fitness was -0.279 ± 0.065.

As to QPYKFCDYCKCWIADNRPSVEFHERGKNHKENVAKR [K3Y], the abundance fitness stood at 0.045 ± 0.14.

Consider QPHKFCDYCKCWIADNRPSVEFHERGKNHKENVAKR [K3H], for which the abundance fitness is -0.569 ± 0.19.

In the case of QPDKFCDYCKCWIADNRPSVEFHERGKNHKENVAKR [K3D], the abundance fitness was -0.025 ± 0.12.

In the case of QPTKFCDYCKCWIADNRPSVEFHERGKNHKENVAKR [K3T], the abundance fitness is -0.275 ± 0.11.

Consider QPEKFCDYCKCWIADNRPSVEFHERGKNHKENVAKR [K3E], for which the abundance fitness worked out at 0.174 ± 0.073.

With QPSKFCDYCKCWIADNRPSVEFHERGKNHKENVAKR [K3S], the abundance fitness was -0.102 ± 0.07.

With QPQKFCDYCKCWIADNRPSVEFHERGKNHKENVAKR [K3Q], the abundance fitness was found to be 0.082 ± 0.08.

For QPMKFCDYCKCWIADNRPSVEFHERGKNHKENVAKR [K3M], the abundance fitness came out at 0.074 ± 0.087.

As to QPWKFCDYCKCWIADNRPSVEFHERGKNHKENVAKR [K3W], the abundance fitness was -0.997 ± 0.1.

With QPPKFCDYCKCWIADNRPSVEFHERGKNHKENVAKR [K3P], the abundance fitness is -0.119 ± 0.076.

With QPCKFCDYCKCWIADNRPSVEFHERGKNHKENVAKR [K3C], the abundance fitness was -1.59 ± 0.17.

In the case of QPGKFCDYCKCWIADNRPSVEFHERGKNHKENVAKR [K3G], the abundance fitness is -0.051 ± 0.058.

On to QPLKFCDYCKCWIADNRPSVEFHERGKNHKENVAKR [K3L], for which the abundance fitness was -0.193 ± 0.066.

Source of the values: the Human Domainome abundance scans (Beltran et al. 2025).
